We go through 44 substances from patent US20180251489A1.

As usually defined, the Ki is the dissociation constant of the complex between target and ligand, obtained from inhibition or displacement.

The target in this assay is mucosa-associated lymphoid tissue lymphoma translocation protein 1 (UniProt Q9UDY8). Kind of assay: enzyme inhibition assay, 100 nM MALT1.
Chain of mucosa-associated lymphoid tissue lymphoma translocation protein 1 (Q9UDY8 340-789): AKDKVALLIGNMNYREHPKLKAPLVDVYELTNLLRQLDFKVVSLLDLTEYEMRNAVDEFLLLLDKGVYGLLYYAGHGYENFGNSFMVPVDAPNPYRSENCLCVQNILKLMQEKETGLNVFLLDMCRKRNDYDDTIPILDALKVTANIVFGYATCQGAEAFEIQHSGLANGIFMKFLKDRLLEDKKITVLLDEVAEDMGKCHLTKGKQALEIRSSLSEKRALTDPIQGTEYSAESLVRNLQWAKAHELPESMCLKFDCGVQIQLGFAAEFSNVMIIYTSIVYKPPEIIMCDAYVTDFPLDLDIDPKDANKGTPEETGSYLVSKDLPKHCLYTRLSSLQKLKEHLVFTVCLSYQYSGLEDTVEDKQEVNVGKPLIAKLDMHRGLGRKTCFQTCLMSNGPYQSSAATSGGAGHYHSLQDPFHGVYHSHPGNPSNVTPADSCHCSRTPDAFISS
With “Benzyl ((S)-1-((S)-2-(((S)-1-fluoro-6-guanidino-2-oxohexan-3-yl)carbamoyl)pyrrolidin-1-yl)-3-methyl-1-oxobutan-2-yl)(methyl)carbamate (peptide)”, the Ki was determined as 808 nM.
Then “Benzyl ((S)-1-((S)-2-(((S)-1-fluoro-6-guanidino-2-oxohexan-3-yl)carbamoyl)pyrrolidin-1-yl)-4-methyl-1-oxopentan-2-yl)carbamate (peptide)”, with 93 nM; and “Benzyl (1-((S)-2-(((S)-1-fluoro-6-guanidino-2-oxohexan-3-yl)carbamoyl)pyrrolidine-1-carbonyl)cyclopentyl)carbamate (peptide)”, with 1180 nM; and “(S)-1-(((2-Chlorophenyl)carbamoyl)-L-valyl)-N-((S)-1-fluoro-6-guanidino-2-oxohexan-3-yl)pyrrolidine-2-carboxamide (peptide)”, with 24 nM.
As for “(S)-N-((S)-1-Fluoro-6-guanidino-2-oxohexan-3-yl)-1-((4-fluorobenzoyl)-L-valyl)pyrrolidine-2-carboxamide (peptide)”, the Ki amounted to 13 nM.
To “(S)-N-((S)-1-Fluoro-6-guanidino-2-oxohexan-3-yl)-1-((4-methoxybenzoyl)-L-valyl)pyrrolidine-2-carboxamide (peptide)” belongs 50 nM.
The substance “Benzyl ((S)-2-((S)-2-(((S)-1-fluoro-6-guanidino-2-oxohexan-3-yl)carbamoyl)pyrrolidin-1-yl)-2-oxo-1-phenylethyl)carbamate (peptide)” displayed a Ki of 154 nM.
Then “(S)-N-((S)-1-Fluoro-6-guanidino-2-oxohexan-3-yl)-1-((4-morpholinobenzoyl)-L-valyl)pyrrolidine-2-carboxamide (peptide)”, with 75 nM.
The substance “(S)-1-((4-(tert-Butyl)benzoyl)-L-valyl)-N-((S)-1-fluoro-6-guanidino-2-oxohexan-3-yl)pyrrolidine-2-carboxamide (peptide)” had a Ki of 45 nM.
The substance “(S)-1-(((3-Chlorophenyl)carbamoyl)-L-valyl)-N-((S)-1-fluoro-6-guanidino-2-oxohexan-3-yl)pyrrolidine-2-carboxamide (peptide)” had a Ki of 27 nM.
To “(S)-1-((4-bromo-3-fluorobenzoyl)-L-valyl)-N-((S)-1-fluoro-6-guanidino-2-oxohexan-3-yl)pyrrolidine-2-carboxamide (peptide)” belongs 78 nM; to “(S)-1-((4-chloro-3-cyanobenzoyl)-L-valyl)-N-((S)-1-fluoro-6-guanidino-2-oxohexan-3-yl)pyrrolidine-2-carboxamide (peptide)”, 24 nM.
Then “(S)-N-((S)-1-fluoro-6-guanidino-2-oxohexan-3-yl)-1-((4-(trifluoromethyl)benzoyl)-L-valyl)pyrrolidine-2-carboxamide (peptide)”, with 132 nM; and “(S)-1-(([1,1′-biphenyl]-4-carbonyl)-L-valyl)-N-((S)-1-fluoro-6-guanidino-2-oxohexan-3-yl)pyrrolidine-2-carboxamide (peptide)”, with 30 nM.
Regarding “Benzyl ((S)-1-((2S,4S)-2-(((S)-1-fluoro-6-guanidino-2-oxohexan-3-yl)carbamoyl)-4-hydroxypyrrolidin-1-yl)-3-methyl-1-oxobutan-2-yl)carbamate (peptide)”, the Ki was 49 nM.
Then “4-Bromo-N-((S)-1-cyclohexyl-2-(((S)-1-(((S)-1-fluoro-6-guanidino-2-oxohexan-3-yl)amino)-3-hydroxy-1-oxopropan-2-yl)amino)-2-oxoethyl)benzamide (peptide)”, with 46 nM.
Turning to “3-Chlorobenzyl ((S)-1-((S)-2-(((S)-1-fluoro-6-guanidino-2-oxohexan-3-yl)carbamoyl)pyrrolidin-1-yl)-3-methyl-1-oxobutan-2-yl)carbamate (peptide)”, the Ki came out at 22 nM.
To “(S)-1-((4-chlorobenzoyl)-L-valyl)-N-((S)-1-fluoro-6-guanidino-2-oxohexan-3-yl)pyrrolidine-2-carboxamide (peptide)” belongs 67 nM; to “(S)-N-((S)-1-Fluoro-6-guanidino-2-oxohexan-3-yl)-1-((4-isopropylbenzoyl)-L-valyl)pyrrolidine-2-carboxamide (peptide)”, 22 nM; to “(S)-1-((1-naphthoyl)-L-valyl)-N-((S)-1-fluoro-6-guanidino-2-oxohexan-3-yl)pyrrolidine-2-carboxamide (peptide)”, 102 nM.
Then “benzyl ((S)-1-(((S)-1-(((S)-1-fluoro-6-guanidino-2-oxohexan-3-yl)amino)-3-hydroxy-1-oxopropan-2-yl)amino)-3-methyl-1-oxobutan-2-yl)carbamate (peptide)”, with 64 nM.
Then “(S)-4-((4-Bromobenzoyl)-L-valyl)-N-((S)-1-fluoro-6-guanidino-2-oxohexan-3-yl)morpholine-3-carboxamide (peptide)”, with 70 nM; and “(S)-1-(((3-Chlorophenyl)carbamoyl)-L-valyl)-N-((R)-1-fluoro-6-guanidino-2-oxohexan-3-yl)pyrrolidine-2-carboxamide (peptide)”, with 557 nM; and “N-((S)-1-((S)-2-(((S)-1-Fluoro-6-guanidino-2-oxohexan-3-yl)carbamoyl)pyrrolidin-1-yl)-3-methyl-1-oxobutan-2-yl)-1-methyl-1H-pyrazole-4-carboxamide (peptide)”, with 100 nM.
Consider “(S)-N-((R)-1-Fluoro-6-guanidino-2-oxohexan-3-yl)-1-((4-fluorobenzoyl)-L-valyl)pyrrolidine-2-carboxamide (peptide)”, for which the Ki was found to be 346 nM.
In turn, “(S)-N-((S)-1-fluoro-6-guanidino-2-oxohexan-3-yl)-1-((3-morpholinobenzoyl)-L-valyl)pyrrolidine-2-carboxamide (peptide)” registered a Ki of 58 nM. Compared with the last substance, the Ki is about 6-fold lower.
To “N-((S)-1-((S)-2-(((S)-1-fluoro-6-guanidino-2-oxohexan-3-yl)carbamoyl)pyrrolidin-1-yl)-3-methyl-1-oxobutan-2-yl)quinoline-2-carboxamide (peptide)” belongs 55 nM; to “(S)-1-((4-Bromobenzoyl)-L-leucyl)-N-((S)-1-fluoro-6-guanidino-2-oxohexan-3-yl)pyrrolidine-2-carboxamide (peptide)”, 182 nM.
To “N-((S)-1-((S)-2-(((S)-1-fluoro-6-guanidino-2-oxohexan-3-yl)carbamoyl)pyrrolidin-1-yl)-3-methyl-1-oxobutan-2-yl)-5-phenylthiazole-2-carboxamide (peptide)” belongs 121 nM; to “N-((S)-1-((S)-2-(((S)-1-Fluoro-6-guanidino-2-oxohexan-3-yl)carbamoyl)pyrrolidin-1-yl)-3-methyl-1-oxobutan-2-yl)-2-morpholinothiazole-4-carboxamide (peptide)”, 111 nM.
Take “N-((S)-1-((S)-2-(((S)-1-Fluoro-6-guanidino-2-oxohexan-3-yl)carbamoyl)pyrrolidin-1-yl)-3-methyl-1-oxobutan-2-yl)-2-methylthiazole-4-carboxamide (peptide)”: the Ki came out at 52 nM.
To “(S)-N-((S)-1-Fluoro-6-guanidino-2-oxohexan-3-yl)-1-((phenylcarbamoyl)-L-valyl)pyrrolidine-2-carboxamide (peptide)” belongs 52 nM.
As to “(S)-N-((S)-1-fluoro-6-guanidino-2-oxohexan-3-yl)-1-((3-(trifluoromethoxy)benzoyl)-L-valyl)pyrrolidine-2-carboxamide (peptide)”, the Ki is 15 nM.
Then “(S)-1-((2-Bromobenzoyl)-L-valyl)-N-((S)-1-fluoro-6-guanidino-2-oxohexan-3-yl)pyrrolidine-2-carboxamide (peptide)”, with 105 nM.
The substance “(S)-1-((2-naphthoyl)-L-valyl)-N-((S)-1-fluoro-6-guanidino-2-oxohexan-3-yl)pyrrolidine-2-carboxamide (peptide)” yielded a Ki of 47 nM.
On to “(S)-1-((4-bromo-3-cyanobenzoyl)-L-valyl)-N-((S)-1-fluoro-6-guanidino-2-oxohexan-3-yl)pyrrolidine-2-carboxamide (peptide)”, for which the Ki was determined as 13 nM.
To “(S)-1-((4-Bromobenzoyl)-L-valyl)-N-((S)-1-fluoro-6-guanidino-2-oxohexan-3-yl)pyrrolidine-2-carboxamide (peptide)” belongs 10 nM; to “(S)-1-((S)-2-(4-Bromobenzamido)-3-(4-(trifluoromethyl)phenyl)propanoyl)-N-((S)-1-fluoro-6-guanidino-2-oxohexan-3-yl)pyrrolidine-2-carboxamide (peptide)”, 448 nM.
To “(S)-N-((S)-1-Fluoro-6-guanidino-2-oxohexan-3-yl)-1-((2-methoxybenzoyl)-L-valyl)pyrrolidine-2-carboxamide (peptide)” belongs 109 nM; to “Benzyl ((S)-1-((S)-2-(((S)-1-fluoro-6-guanidino-2-oxohexan-3-yl)carbamoyl)-2-methylpyrrolidin-1-yl)-3-methyl-1-oxobutan-2-yl)carbamate (peptide)”, 158 nM.
To “Benzyl ((S)-1-((S)-2-(((S)-1-fluoro-6-guanidino-2-oxohexan-3-yl)carbamoyl)piperidin-l-yl)-3-methyl-1-oxobutan-2-yl)carbamate (peptide)” belongs 40 nM; to “(S)-1-((3-Bromobenzoyl)-L-valyl)-N-((S)-1-fluoro-6-guanidino-2-oxohexan-3-yl)pyrrolidine-2-carboxamide (peptide)”, 41 nM; to “(S)-1-((S)-2-(4-bromobenzamido)-2-cyclohexylacetyl)-N-((S)-1-fluoro-6-guanidino-2-oxohexan-3-yl)pyrrolidine-2-carboxamide (peptide)”, 45 nM.
“Benzyl ((S)-1-((S)-2-(((S)-1-fluoro-6-guanidino-2-oxohexan-3-yl)carbamoyl)pyrrolidin-1-yl)-1-oxo-3-phenylpropan-2-yl)carbamate (peptide)”: the Ki is 76 nM.
